Where a chain is given by its changes, count along the chain named. Names and notes keep the numbering of the source. “Also recorded” adds a separate entry of the source.
B1: pAzFRS.1: pAcFRS variant D158V, I159M, L162D, A167Y, SEQ ID NO: 10 (protein)
chain: MDEFEMIKRNTSEIISEEELREVLKKDEKSALIGFEPSGKIHLGHYLQIKKMIDLQNAGFDIIILLADLHAYLNQKGELDEIRKIGDYNKKVFEAMGLKAKYVYGSEFQLDKDYTLNVYRLALKTTLKRARRSMELIAREDENPKVAEVIYPIMQVNVMHYDGVDVYVGGMEQRKIHMLARELLPKKVVCIHNPVLTGLDGEGKMSSSKGNFIAVDDSPEEIRAKIKKAYCPAGVVEGNPIMEIAKYFLEYPLTIKRPEKFGGDLTVNSYEELESLFKNKELHPMRLKNAVAEELIKILEPIRKRL
B2: pAzFRS.2: pAcFRS variant E107T, F108Y, Q109M, SEQ ID NO: 13 (protein)
chain: B1 chain with E107T, F108Y, Q109M, V158G, M159C, D162R, Y167A

How the values were obtained:
ELP(30TAG)-GFP [1] = experiment: ELP expression and purification, yield of purified ELP(30TAG)-GFP; assay type: cell-based, E. coli; details: for yield of purified ELP(30TAG)-GFP compared to expression of WT protein: small batch cultures
Protocol: Before batch expression, starter cultures (2 mL) of 2×YT media supplemented with 30 μg/mL kanamayacin and 20 μg/mL chloramphenicol were inoculated with transformed cells from a fresh agar plate or from stocks stored at −80° C., and incubated overnight at 34° C. while shaking at 250 rpm. Expression cultures (250 ml flasks containing 50 ml of 2×YT media, antibiotics, 0.2% arabinose and 1 mM of the nsAA) were inoculated with 0.5 ml of the starter culture and incubated at 34° C. for 4 h and then reporter protein expression was induced with 60 μg/mL anhydrotetracyclin.
Cells were harvested 24 h after inoculation by centrifugation at 4,000 g for 15 min at 4° C. The cell pellet was resuspended by vortex in ˜1.5 mL PBS buffer and stored at −80° C. or immediately purified. For purification, resuspended pellets were lysed by ultrasonic disruption (9 cycles of 10 s sonication separated by 40 s intervals). Poly(ethyleneimine) (0.2 mL of 10% solution) was added to each lysed suspension before centrifugation at 15,000 g for 3 min to separate cell debris from the soluble cell lysate.
All ELP constructs were purified by a modified Inverse Transition Cycling (ITC) protocol consisting of multiple “hot” and “cold” spins using sodium citrate to trigger the phase transition. Before purification, the soluble cell lysate was incubated for 1-2 min at ˜65° C. to denature native E. coli proteins. For “hot” spins, the ELP phase transition was triggered by adding sodium citrate to the cell lysate or the product of a previous cycle of ITC at a final concentration of ˜0.5 M. The solutions were then centrifuged at 14,000 g for 3 min and the pellets were resuspended in PBS, followed by a 3-5 min “cold” spin performed without addition of sodium citrate to remove denatured contaminant. Additional rounds of ITC were carried out as needed until sufficient purification was achieved.
Protein concentration was calculated by measuring the OD280 of purified protein stocks according to the following extinction coefficients for ELP(30TAG)-GFP.

ELP(30TAG)-GFP [2] = experiment: Intact cell GFP fluorescence, ELP(30TAG)-GFP production; assay type: cell-based, E. coli; details: plasmid-based pAcF OTS in the GRO
Protocol: (§1) Liquid cell cultures of strains harboring chromosomally integrated OTSs and GFP reporter plasmids were inoculated from frozen stocks and grown to confluence overnight. Cultures were then inoculated at 1:20 dilution in LBmin media supplemented with 30 μg/ml kanamycin. Strains were inoculated by addition of 1:20 confluent cell culture (grown overnight) and allowed to grow at 34° C. to an OD600 of 0.5-0.8 in a shaking plate incubator at 650 r.p.m (˜3 h). AARS expression was then induced by the addition of 0.2% arabinose, GFP expression was induced by the addition of 60 ng/ul anhydrotetracycline, and the appropriate nsAA was added to a concentration of 1 mM. Cells were incubated at 34° C. for an additional 16 h. Liquid cell cultures of strains harboring plasmid-based OTSs and GFP or ELP-GFP reporter plasmids were inoculated from frozen stocks and grown to confluence overnight. Cultures were then inoculated at 1:20 dilution in 2×YT media supplemented with 30 μg/ml kanamycin and 20 μg/ml chloramphenicol. […] Cells were allowed to grow at 34° C. to an OD600 of 0.5-0.8 in a shaking plate incubator at 650 r.p.m (˜3 h), reporter protein expression was then induced by the addition of 60 ng/ul anhydrotetracycline, and cells were incubated at 34° C. for an additional 16 h.
(§2) For 384 well plate-based assays, fluorescence and OD600 were directly measured following expression. For 96 well plate-based assays, cells were centrifuged at 4,000 g for 4 min. Supernatant medium was removed and cells were resuspended in PBS. This process was repeated twice with PBS. GFP fluorescence was measured on a Biotek spectrophotometric plate reader using excitation and emission wavelengths of 395 and 509 nm, respectively). Fluorescence signals were normalized by dividing the fluorescence counts by the OD600 reading. The nsAAs used in this study were purchased from Sigma-Aldrich (St. Louis, Mo.), Chemlmpex (Wood Dale, Ill.), and Bachem (Torrance, Calif.). Solutions of nsAAs (50 mM) were made in water or 50 mM NaOH; these stock solutions were diluted 50- or 100-fold (to 1 mM final concentration) into medium used for bacterial growth.

ELP(10TAG)-GFP = experiment: Intact cell GFP fluorescence, ELP(10TAG)-GFP production; parameters: species or system E. coli; details: plasmid-based pAcF OTS in the GRO
Protocol: Liquid cell cultures of strains harboring chromosomally integrated OTSs and GFP reporter plasmids were inoculated from frozen stocks and grown to confluence overnight. Cultures were then inoculated at 1:20 dilution in LBmin media supplemented with 30 μg/ml kanamycin. Strains were inoculated by addition of 1:20 confluent cell culture (grown overnight) and allowed to grow at 34° C. to an OD600 of 0.5-0.8 in a shaking plate incubator at 650 r.p.m (˜3 h). AARS expression was then induced by the addition of 0.2% arabinose, GFP expression was induced by the addition of 60 ng/ul anhydrotetracycline, and the appropriate nsAA was added to a concentration of 1 mM. Cells were incubated at 34° C. for an additional 16 h. Liquid cell cultures of strains harboring plasmid-based OTSs and GFP or ELP-GFP reporter plasmids were inoculated from frozen stocks and grown to confluence overnight. Cultures were then inoculated at 1:20 dilution in 2×YT media supplemented with 30 μg/ml kanamycin and 20 μg/ml chloramphenicol. […]
For 384 well plate-based assays, fluorescence and OD600 were directly measured following expression. […] GFP fluorescence was measured on a Biotek spectrophotometric plate reader using excitation and emission wavelengths of 395 and 509 nm, respectively). Fluorescence signals were normalized by dividing the fluorescence counts by the OD600 reading. […]

GFP(3TAG) [3] = assay type: cell-based, E. coli; details: for GFP(3TAG) fluorescence compared to WT-protein: plasmid-based pAcF OTS in the GRO; for higher GFP(3TAG) production compared with the progenitor enzyme: chromosomally integrated AARS, pAzF
Protocol: as §1, §2

GFP(3TAG) [4] = experiment: nsAA library screening, GFP(3TAG) fluorescence in 384 well plates; assay type: cell-based, E. coli; details: GFP(3TAG) production in the presence of pAcF, pAzF and 236 other nsAAs
Protocol: as §1
as §2, with “growth. […]” for “growth.”

tRNA = experiment: Aminoacylation assay (tRNA charging); assay type: biochemical; details: nsAA pAzF; for Fold change: relative to progenitor pAcFRS
Protocol: Template plasmid containing tRNA gene was purified with the plasmid maxi kit (Qiagen), and 100 μg of plasmid was digested with BstNI (New England Biolabs). The BstNI digested template DNA was purified by phenol chloroform extraction, followed by ethanol precipitation and resolved in double distilled water. A His-tagged T7 RNA polymerase was purified over column of Ni-NTA resin according to manufacturer's instructions (Qiagen). The transcription reaction [40 mM Tris (pH 8); 4 mM each of UTP, CTP, GTP, and ATP at pH 7.0; 22 mM MgCl2; 2 mM spermidine; 10 mM DTT; 6 μg pyrophosphatase (Roche Applied Science); 60 μg/mL BstNI digested DNA template, approximately 0.2 mg/ml T7 RNA polymerase] was performed in 10 ml reaction volumes for overnight at 37° C. The tRNA was purified on 12% denaturing polyacrylamide gel containing 8 M urea and TBE buffer (90 mM Tris, 90 mM boric acid, 2 mM EDTA). UV shadowing illuminates the pure tRNA band, which is excised and extracted three times with 1M sodium acetate pH 5.3 at 4° C. The tRNA extractions were then ethanol precipitated, dissolved in RNase-free distilled water, pooled, and finally desalted using a Biospin 30 column (BioRad). The ratio of aminoacylated tRNA to total tRNA was determined to monitor reaction progress.
The tRNA was refolded by heating to 100° C. for 5 min and slow cooling to room temperature. At 65° C., MgC12, was added to a final concentration of 10 mM to aid folding. A His-tagged CCA adding enzyme was purified over column of Ni-NTA resin according to manufacturer's instructions (Qiagen). 16 μM folded tRNA in 50 mM Tris (pH 8.0), 20 mM MgCl2, 5 mM DTT and 50 μM NaPPi was incubated at room temperature for 1 hour with approximately 0.2 mg/ml CCA-adding enzyme and 1.6 μCi/μl of [α-32P]-labeled ATP (PerkinElmer). The sample was phenol/chloroform extracted and then passed over a Bio-spin 30 column (Bio-Rad) to remove excess ATP.
A 20 μl aminoacylation reaction contained the following components: 50 mM HEPES-KOH (pH 7.2), 25 mM KCl, 10 mM MgCl2, 5 mM DTT, 10 mM ATP, 25 μg/ml pyrophosphatase (Roche Applied Science), 2 mM amino acids. All plateau tRNA aminoacylation levels were determined at 37° C. according to the reactions conditions described above with 500 nM enzyme, 5 μM unlabeled tRNA plus 100 nM 32P-labeled tRNA. Time points were taken at 5 minutes, 20 minutes and 60 minutes by removing 2 μl aliquots from the reaction and immediately quenching the reaction into an ice-cold 3 μl quench solution [0.66 μg/μl nuclease P1 (Sigma) in 100 mM sodium citrate (pH 5.0)]. For each reaction, 2 μl of blank reaction mixture containing no enzymes was added to the quench solution as the start time point. The nuclease P1 mixture was then incubated at room temperature for 30 min and 1 μl aliquots were spotted on PEI-cellulose plates (Merck) and developed in running buffer containing 5% acetic acid and 100 mM ammonium acetate. Radioactive spots for AMP and AA-AMP (representing free tRNA and aminoacyl-tRNA, respectively) were separated and then visualized and quantified by phosphor imaging by a Molecular Dynamics Storm 860 phosphorimager (Amersham Biosciences). The ratio of aminoacylated tRNA to total tRNA was determined to monitor reaction progress.

[5] = ATP-PPi exchange assay (amino acid activation); assay type: biochemical; details: nsAA pAzF; for Fold change: relative to progenitor pAcFRS
Protocol: A 25 μl ATP-PPi exchange reaction contained the following components: 100 mM HEPES-KOH (pH 7.5), 30 mM KCl, 10 mM MgCl2, 2 mM DTT, 2 mM KF, 2 mM NaPPi, 5 mM ATP, […], 2 μCi/μl of […] (PerkinElmer) and varied concentrations of amino acids (0.25, 0.5, 1.25, 2.5, 5, 10, and 20 mM, respectively). The reactions were incubated at 37° C. Time points were taken at 2 minutes, 5 minutes and 10 minutes by plotting 1 μl aliquots from the reaction immediately to the PEI-cellulose plates (Merck). For each reaction, 1 μl of blank reaction mixture containing no enzymes was set as background. The reaction mixtures were separated on the plates in 1 M urea and 1 M monopotassium phosphate. The plates were then scanned in a Molecular Dynamics Storm 860 phosphorimager (Amersham Biosciences). The ratio of ATP to PPi was determined to monitor reaction progress. The kinetic constants were derived from plotting initial velocity of a series of reactions that contained varied concentrations of amino acids. The data were analyzed by GraFit 5.0 (Erithacus Software).

Row | Molecule | Yield of purified ELP(30TAG)-GFP (ELP(30TAG)-GFP [1]; nsAA pAzF, GRO) | ELP(30TAG)-GFP fluorescence compared to WT-protein (ELP(30TAG)-GFP [2]) [%] | ELP(10TAG)-GFP fluorescence compared to WT-protein (ELP(10TAG)-GFP) [%] | GFP(3TAG) fluorescence compared to WT-protein (GFP(3TAG) [3]) [%] | yield of purified ELP(30TAG)-GFP compared to expression of WT protein (ELP(30TAG)-GFP [1]; GRO) [%] | yield of purified ELP(30TAG)-GFP compared to expression of WT protein (ELP(30TAG)-GFP [1]; parent (non-recoded) strain) [%] | nsAA specificity (polyspecificity) (GFP(3TAG) [4]) | Km (tRNA) [µM] | kcat (tRNA) | Fold change (tRNA) | Km [5] [µM] | kcat [5] | Fold change [5] | higher GFP(3TAG) production compared with the progenitor enzyme (GFP(3TAG) [3]) [fold]
1 | [N-]=[N+]=Nc1ccc(C[C@H](N)C(=O)O)cc1 [pAzF, p-azido-L-phenylalanine, reference compound] | too low to allow for purification | 6 | 32 | 75 | – | – | – | – | – | – | – | – | – | –
2 | CC(=O)c1ccc(C[C@H](N)C(=O)O)cc1 [pAcF, p-acetyl-L-phenylalanine, reference compound] | – | 25 | 87 | 110 | 18 | 8 | – | – | – | – | – | – | – | –
3 | B1 | – | – | – | – | – | – | specific for pAzF; also recorded: exceptional specificity toward pAzF with almost complete exclusion of any other nsAA; also recorded: both more efficient and more specific for pAzF than previously reported pAzFRSs | 38 ± 5 | 0.46 ± 0.18 ×10^−3 s^−1 | 1.48 | 1180 ± 210 | 4.61 ± 0.18 ×10^−2 s^−1 | 2.68 | ~3.5
4 | B2 | – | – | – | – | – | – | polyspecific for at least pAcF, pAzF, StyA, 4IF, 4BrF, 4ClF, 4MeF, 4Cf3F, MeY, 4NO2F, 4BuF, BuY, 2NaA, PheF | 32 ± 11 | 0.73 ± 0.06 ×10^−3 s^−1 | 3.67 | 1250 ± 110 | 4.13 ± 0.86 ×10^−2 s^−1 | 2.26 | ~12

— patent publication US10501734B2, “Compositions and methods of use thereof for making polypeptides with many instances of nonstandard amino acids” (Yale University, priority 2014, dated 2019)
